Test results as given in article PMC3877065, “Ligand Recognition by the TPR Domain of the Import Factor Toc64 from Arabidopsis thaliana” (PLoS ONE, 2013).
Where two headings read alike, the source gives them in different places. Where no end group is shown, it is not given here.

What was measured:
[1] = target: T1, TPR domain of AtToc64 (AtToc64_TPR-H6) (Arabidopsis thaliana, UniProt Q9LVH5); assay: biochemical; type: binding
T1 construct: The region encompassing the TPR domain of AtToc64 was composed of residues 474–589; made in house; host or cells: E. coli BL21(DE3)
Method: Peptides were dissolved in the superdex buffer at 6–14 mM concentration and 302 µL were titrated against 1.4 ml of protein at 0.1–0.3 mM in a VP-ITC Microcal Instrument (GE Healthcare). Titrations were carried out at 20°C using 30 injections of 10 µL each injected at interval of 200 seconds. Injections were continued beyond saturation levels to allow determination of the heats of ligand dilution. The non-linear least square curve-fitting algorithm (Microcal Origin) was used for data fitting. After subtraction of the heat of dilution, three floating variables: stoichiometry (N), binding constant (Kd) and change in enthalpy of interaction (ΔH) were obtained. For subsequent alanine scan experiments the stoichiometry was fixed at N = 1.

[2] = target: TPR domain of AtToc64 with a C-terminal hexa-histidine tag (AtToc64_TPR-H6) (Arabidopsis thaliana) (UniProt Q9LVH5); assay: ITC; peptide (6-14 mM) titrated into AtToc64_TPR-H6 (0.1-0.3 mM) in the cell, VP-ITC, 20°C, 25 mM Hepes, 100 mM KCl, pH 7.3; 1:1 model, stoichiometry fixed at N = 1 for the alanine scan
[3] = target: T2, TPR domain of AtToc64 with a C-terminal hexa-histidine tag (AtToc64_TPR-H6) (Arabidopsis thaliana, UniProt Q9LVH5 474-589); assay: ITC
T2 chain: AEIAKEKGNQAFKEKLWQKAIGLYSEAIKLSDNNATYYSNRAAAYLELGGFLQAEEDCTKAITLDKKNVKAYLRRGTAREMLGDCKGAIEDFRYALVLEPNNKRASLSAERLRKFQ

[4] = target: T3, TPR domain of AtToc64 with a C-terminal hexa-histidine tag (AtToc64_TPR-H6) (Arabidopsis thaliana, UniProt Q9LVH5 474-589); assay: ITC; peptide (6-14 mM) titrated into 1.4 ml of protein (0.1-0.3 mM) in the cell; 20°C; 25 mM Hepes, 100 mM KCl, pH 7.3; 30 injections of 10 µL; 1:1 binding model with N, Kd and ΔH floating; settings: both partners purified
T3 construct: Toc64 (AtToc64) from Arabidopsis thaliana, TPR domain, residues 474-589 of the full-length protein (NP_188424, At3g17970); Cloned with NcoI/XhoI into pETM10; also called TPR domain of Toc64 from Arabidopsis thaliana; source: E. coli BL21(DE3), purified (Ni-NTA, size exclusion chromatography); not shown: His6, C-terminal, kept
T3 sequence (looked up): T2 chain

[5] = target: T3, TPR domain of AtToc64 with a C-terminal …; assay: as above; settings: both partners purified; remark: listed apart in the source
[6] = ITC alanine scanning, Table S1, stoichiometry fixed at N = 1, 20°C
[7] = ITC, Figure 4, alanine scanning of octapeptides, stoichiometry fixed at N = 1 for alanine scan, 20°C

**Q.** Which Kd [1] does the source give for `CC[C@H](C)[C@H](N)C(=O)N[C@@H](CCC(=O)O)C(=O)N[C@@H](CCC(=O)O)C(=O)N[C@H](C(=O)N[C@@H](CC(=O)O)C(=O)O)C(C)C` [IEEVD] here?
**A.** 568 µM

**Q.** Which Kd [1] does the source give for `CSCC[C@H](N)C(=O)N[C@@H](CCC(=O)O)C(=O)N[C@@H](CCC(=O)O)C(=O)N[C@H](C(=O)N[C@@H](CC(=O)O)C(=O)O)C(C)C` [MEEVD] here?
**A.** 800 µM

**Q.** For GPTAEEVD [GPTAEEVD], which Kd [1] is on record?
**A.** 4650 µM

**Q.** “GPTIEAVD [Ala-substituted Hsp70 octapeptide]” was tested. Which Kd [1, 6] did it give?
**A.** No binding

**Q.** “GPTIEEAD [Ala-substituted Hsp70 octapeptide]” was tested. Which Kd [1, 6] did it give?
**A.** No binding

**Q.** For “GPTIEEVA [Ala-substituted Hsp70 octapeptide]”, which Kd [1, 6] is on record?
**A.** No binding

**Q.** GPTIEEVD [GPTIEEVD] was tested. Which Kd [1] did it give?
**A.** 230 µM

**Q.** “Hsp70 C-terminal octapeptide, alanine mutant APTIEEVD” was tested. Which Kd [2] did it give?
**A.** 740 µM

**Q.** What about the stoichiometry N [2] of the same molecule?
**A.** 1

**Q.** “Hsp70 C-terminal octapeptide, alanine mutant GATIEEVD” was tested. Which Kd [2] did it give?
**A.** 657 µM

**Q.** And the stoichiometry N [2]?
**A.** 1

**Q.** With “Hsp70 C-terminal octapeptide, alanine mutant GPAIEEVD” as the molecule, how does the Kd [2] read?
**A.** 769 µM

**Q.** What about the stoichiometry N [2] of the same molecule?
**A.** 1

**Q.** For “Hsp70 C-terminal octapeptide, alanine mutant GPTAEEVD”, which stoichiometry N [2] is on record?
**A.** 1

**Q.** Which Kd [2] does the source give for “Hsp90 C-terminal octapeptide, alanine mutant ASRMEEVD” here?
**A.** 854 µM

**Q.** What about the stoichiometry N [2] of the same molecule?
**A.** 1

**Q.** Which Kd [2] does the source give for “Hsp90 C-terminal octapeptide, alanine mutant TARMEEVD” here?
**A.** 344 µM

**Q.** And the stoichiometry N [2]?
**A.** 1

**Q.** With “Hsp90 C-terminal octapeptide, alanine mutant TSAMEEVD” as the molecule, how does the Kd [2] read?
**A.** 100 µM

**Q.** What about the stoichiometry N [2] of the same molecule?
**A.** 1

**Q.** With “Hsp90 C-terminal octapeptide, alanine mutant TSRAEEVD” as the molecule, how does the Kd [2] read?
**A.** 1080 µM

**Q.** And the stoichiometry N [2]?
**A.** 1

**Q.** “Hsp90 C-terminal octapeptide, alanine mutant TSRMEAVD” was tested. Which stoichiometry N [2] did it give?
**A.** 1

**Q.** “Hsp90 C-terminal octapeptide, alanine mutant TSRMEEVA” was tested. Which stoichiometry N [2] did it give?
**A.** 1

**Q.** Which results are given for “TSRMAEVD [Ala-substituted Hsp90 octapeptide]”?
**A.** Kd [1, 6]: No binding*; Kd [1, 7]: No binding

**Q.** TSRMEAVD [TSRMEAVD] was tested. Which Kd [1] did it give?
**A.** 1910 µM

**Q.** “TSRMEEAD [Ala-substituted Hsp90 octapeptide]” was tested. Which Kd [1, 7] did it give?
**A.** No binding

**Q.** TSRMEEVA [TSRMEEVA] was tested. Which Kd [1] did it give?
**A.** 1400 µM

**Q.** How did the Kd [1] turn out when TSRMEEVD [TSRMEEVD] was run?
**A.** 218 µM

**Q.** How did the Kd [3] turn out when GPTAEEVD [Hsp70 C-terminal octapeptide, Ile120 to Ala (GPTAEEVD)] was run?
**A.** 4600 µM

B1: C-terminal octapeptide of Hsp90 (TSRMEEVD) (peptide)
peptide: TSRMEEVD
notes: C-terminal octapeptide of Hsp90; also called Hsp90 octapeptide; C90_C8; source: synthetic peptide (Biomatik, >85% purity)
**Q.** What does the source list for B1?
**A.** dH [4]: -6.18 kcal/mol; stoichiometry N [4]: 0.94

**Q.** With APTIEEVD [Hsp70 C-terminal octapeptide, Gly117 to Ala] as the molecule, how does the Kd [3] read?
**A.** 740 µM

**Q.** How did the Kd [3] turn out when ASRMEEVD [Hsp90 C-terminal octapeptide, Thr117 to Ala] was run?
**A.** 854 µM

B2: C-terminal pentapeptide of Hsp70, Hsp70_C5 (IEEVD) (peptide)
peptide: IEEVD
notes: C-terminal pentapeptide of Hsp70; also called C70_C5; Hsp70 pentapeptide; source: synthetic peptide (Biomatik, >85% purity)
**Q.** For B2, which dH [4] is on record?
**A.** -1.63 kcal/mol

**Q.** And the “stoichiometry N” value [4]?
**A.** 0.93

**Q.** What about the “stoichiometry N” value [5] of the same molecule?
**A.** 1.2

B3: C-terminal pentapeptide of Hsp90, Hsp90_C5 (MEEVD) (peptide)
peptide: MEEVD
notes: C-terminal pentapeptide of Hsp90; also called C90_C5; Hsp90 pentapeptide; source: synthetic peptide (Biomatik, >85% purity)
**Q.** What does the source list for B3?
**A.** dH [4]: -2.68 kcal/mol; stoichiometry N [4]: 1.04

B4: C-terminal octapeptide of Hsp70 (GPTIEEVD) (peptide)
peptide: GPTIEEVD
notes: C-terminal octapeptide of Hsp70; also called Hsp70 octapeptide; C70_C8; source: synthetic peptide (Biomatik, >85% purity)
**Q.** Which dH [4] does the source give for B4 here?
**A.** -1 kcal/mol

**Q.** And the “stoichiometry N” value [4]?
**A.** 1.2

**Q.** How did the Kd [3] turn out when GATIEEVD [Hsp70 C-terminal octapeptide, Pro118 to Ala (GATIEEVD)] was run?
**A.** 657 µM

**Q.** With GPAIEEVD [Hsp70 C-terminal octapeptide, Thr119 to Ala (GPAIEEVD)] as the molecule, how does the Kd [3] read?
**A.** 769 µM

**Q.** Which Kd [3] does the source give for TARMEEVD [Hsp90 C-terminal octapeptide, Ser118 to Ala (TARMEEVD)] here?
**A.** 344 µM

**Q.** How did the Kd [3] turn out when TSRAEEVD [Hsp90 C-terminal octapeptide, Met120 to Ala (TSRAEEVD)] was run?
**A.** 1080 µM

**Q.** How did the Kd [3] turn out when TSRMEEVA [Hsp90 C-terminal octapeptide, Asp124 to Ala] was run?
**A.** 1400 µM

**Q.** Which Kd [3] does the source give for TSAMEEVD [Hsp90 C-terminal octapeptide, Arg119 to Ala (TSAMEEVD)] here?
**A.** 100 µM

**Q.** How did the Kd [3] turn out when TSRMEAVD [Hsp90 C-terminal octapeptide, Glu122 to Ala (TSRMEAVD)] was run?
**A.** 1900 µM
